Literature values as cited in article PMC3529988.
pKd: −log10 of the molar value.

Target: E2F TD (Homo sapiens) (UniProt Q01094)
Chain of UniProt Q01094 (Q01094 368-437): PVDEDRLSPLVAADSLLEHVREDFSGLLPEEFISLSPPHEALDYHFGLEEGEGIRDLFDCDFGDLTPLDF

- pKd: 7.30
Substance: Rb pocket (from UniProt P06400)
